Data reported in US20110288036A1, “Methods for Treating or Preventing Vascular Graft Failure” (priority 2010, published 2011).
Where no end group is shown, it is not given here.

Biological target: MK2 (mitogen-activated protein kinase-activated protein kinase 2), P49137
Assay: cell-based or functional assay

Sequence of MK2 (mitogen-activated protein kinase-activated protein kinase 2), P49137 (P49137 46-400): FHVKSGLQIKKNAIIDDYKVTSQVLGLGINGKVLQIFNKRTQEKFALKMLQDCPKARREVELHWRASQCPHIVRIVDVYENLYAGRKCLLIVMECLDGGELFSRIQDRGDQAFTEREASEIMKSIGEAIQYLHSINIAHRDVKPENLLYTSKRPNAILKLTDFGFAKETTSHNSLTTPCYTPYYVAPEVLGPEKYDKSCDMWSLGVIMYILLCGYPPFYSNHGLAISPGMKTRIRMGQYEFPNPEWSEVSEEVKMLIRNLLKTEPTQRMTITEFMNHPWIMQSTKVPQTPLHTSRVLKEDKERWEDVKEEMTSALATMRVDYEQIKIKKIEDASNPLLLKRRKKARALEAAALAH

B1: MMI-0100 (…; SEQ ID NO: 1) (peptide)
peptide: YARAAARQARAKALARQLGVAA
modifications: not fully specified (C-terminus)
Percent Activity (radiometric kinase assay, 100 µM peptide) (percent activity): < 5
